Laboratory results taken from the Human Domainome abundance scans (Beltran et al. 2025).

B1: LIM and senescent cell antigen-like-containing domain protein 2, residues 13 to 71; numbered along this chain, Q7Z4I7 (parent)
chain: AVCQRCQARFSPAERIVNSNGELYHEHCFVCAQCFRPFPEGLFYEFEGRKYCEHDFQML

Variants of: B1
Experiment: abundance fitness (aPCA) (normalised: wild type 0, dead -1); higher = more abundant; growth selection in yeast, the domain comes from the species named
Conditions: Homo sapiens

Abundance fitness, by site and new letter:
C31: H -0.481, Q -1.06, W -0.893, S -0.896, R -0.767, M -0.785, G -0.774, V -1.04, F -0.954, D -0.574, L -0.709, T -0.975, K -1.1, P -0.888, E -0.612, I -0.76
P39: I -0.396, H -0.383, D 0.05, G -0.159, C 0.01, A -0.056, F -0.565, E -0.024
F38: P -0.101, E -0.512, Q -0.606, D -0.522, N -0.113, T -0.123, A -0.318, H -0.784, L 0.045, R -0.571, W -0.273, K -0.238, G -0.58, Y -0.638, C -0.18, I -0.55, M -0.225
V30: R -0.093, K -0.224, D -0.798, C -0.11, Y -0.343, F -0.097, G -0.233, H -0.143, Q -0.265, T -0.065, S -0.114, I -0.252, W -0.411, E -0.294, N -0.257, M -0.311, L -0.021
F35: V 0.112, I 0.01, G 0.195, P -0.739, E 0.144, A 0.077, C 0.096, D 0.153, W -0.076, H 0.224, M -0.027, N 0.147, Y 0.008, K 0.204, T 0.072, S 0.219, Q -0.014, L 0.031
E26: Y -0.115, N -0.395, T -0.164, P -0.294, G -0.353, M -0.253, F -0.293, W -0.547, V 0.022, H -0.082, S -0.051, C -0.51, R -0.237, D -0.114, K -0.125, L -0.401, I -0.084
Q33: Y -0.107, N 0.053, C -0.145, A 0.024, S -0.135, V 0.071, R -0.077, E 0.044, W -0.206, M -0.068, P -0.58, L -0.195, F 0.285, T 0.012, K -0.092
P37: K -0.214, C -0.171, D -0.217, A -0.187, S -0.016, G -0.328, M -0.198, V -0.193, W -0.371, L -0.349, F -0.192, I -0.23, Q -0.343, E 0.042, H -0.445, Y -0.14, T -0.148
Y24: I -0.137, G -0.238, W -0.123, C -0.116, D -0.444, K -0.257, H -0.16, N -0.474, L -0.057, V -0.072, E -0.303, Q -0.282, F 0.007, T -0.232
C28: K -0.538, A -0.292, Q -0.872, I -0.728, G -0.987, D -0.322, L -1.08, W -0.996, H -0.089, V -0.77, E -0.62, M -0.418, P -1.13, S -0.832, F -0.994, R -0.718
G21: V -0.45, C -0.435, S -0.054, D -0.324, F -0.4, I -0.947, H -0.178, E 0.053, K -0.016, N -0.063, W -0.752, L -0.17, M -0.328, P -0.457, R -0.332, Y -0.518, A -0.045, Q -0.2
H25: Y -0.786, P -0.752, V -0.838, W -0.568, K -0.929, M -0.856, S -0.894, D -0.96, F -0.895, Q -0.987, C 0.048, I -0.972, L -0.668, A -0.918, R -0.784, G -0.832, T -0.808
F29: Y -0.2, T -0.011, R -0.141, W 0.008, G -0.019, A 0.207, E -0.326, L -0.011, K -0.407, C -0.012, Q -0.184, P 0.029, M 0.1, V -0.083, H 0.042, N -0.175, S -0.155, I 0.015
R36: E 0.01, Q 0.063, Y -0.515, D -0.095, I -0.232, A -0.196, W -0.423, T -0.268, S -0.008, M -0.042, P -0.625, C -0.026, V -0.399, F -0.298, K 0.094, H -0.024, N -0.156, L -0.176, G -0.064
H27: F -0.209, G -0.294, Q 0.148, S -0.227, A -0.175, P -0.228, R -0.016, V -0.001, T -0.227
C34: N -0.865, R -0.668, S -1, K -0.901, M -0.474, A -0.871, T -1.13, Y -0.933, V -1.04, E -0.788, G -0.544, L -0.52, W -1.1, P -0.508, Q -0.622, D -0.757, F -1.19
E22: N 0.053, D -0.598, H 0.101, Q 0.216, A 0.079, Y -0.08, I -0.162, V -0.098, K -0.01, R 0.537, C 0.056, G -0.096, W -0.31, S -0.093, T -0.006, M -0.093, F 0.133
A32: F -0.258, Y 0.147, I -0.117, G -0.073, E 0.014, Q 0.083, L -0.322, K -0.274, R -0.26, M -0.099, W -0.149, S -0.172, H 0.118, C -0.354, D -0.026, V -0.001
N20: S 0.087, H 0.087, C -0.038, I -0.482, Y -0.376, P -0.528, L -0.136, D 0.313, E -0.282, F -0.359, Q -0.116, K 0.797, G 0.084, M -0.155, A -0.005, T -0.085, R -0.161
L23: H 0.238, A 0.001, P 0.027, I 0.078, F -0.082, T -0.009, N -0.076, W -0.168, K -0.013, R 0.017, Y 0.186, C -0.185, S -0.003, E -0.18, Q 0.123, G -0.2, D -0.106, M 0.067
S19: K -0.189, F -0.22, G 0.015, R 0.113, H -0.19, V -0.187, Q -0.068, Y -0.455, W -0.16, I -0.151, L -0.132, P -0.29, T -0.064
